{
  "source": "the RNAGym collection of RNA variant scans (doi:10.1073/pnas.2313332121)",
  "parents": {"B1": {"name": "TPR t1 (parent)", "chain": "GACCAAUCUGCCCUCAGAGCUCGAGAACAUCUUCGGAUGCAGAGGAGGCAGGCUUCGGUGGCGCGAUAGCGCCAACGUCCUCAACCUCCAAUGCAUCCCACCACAUGAUGAUGCCUGAAGAGCCUUGGUUUUUUG"}},
  "data": [
    {"variants_of": "B1", "assay": "polymerase ribozyme fitness, log enrichment relative to wild type (log ratio); higher = more active; in vitro selection for triplet polymerase activity", "outline": "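To select mutant libraries of each subunit of a heterodimeric triplet polymerase ribozyme, built by PCR and transcribed, each was annealed with a biotinylated primer, partner subunit and triplets, then incubated frozen at −7 °C. Extended constructs were gel-excised, captured on streptavidin beads and amplified by RT-PCR, in one round carried out in triplicate. Illumina sequencing of input and output libraries kept genotypes with ≥10 input reads and ≥1 read per output. Fitness is the base-2 logarithm of genotype enrichment relative to wild-type enrichment, from inverse-variance-weighted replicate averages.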", "values": [
      {"variant": "G47A U87G", "polymerase ribozyme fitness (log ratio)": -0.336},
      {"variant": "G10A A95C", "polymerase ribozyme fitness (log ratio)": -0.471},
      {"variant": "U32C U33A C104A U109G C114U A121U G122C", "polymerase ribozyme fitness (log ratio)": -5.8},
      {"variant": "C94U C102U U126C", "polymerase ribozyme fitness (log ratio)": -2.66},
      {"variant": "G44U A118U", "polymerase ribozyme fitness (log ratio)": -0.733},
      {"variant": "G52A C72U C85G", "polymerase ribozyme fitness (log ratio)": -2.39},
      {"variant": "A2C C101A U106A C115U A119G", "polymerase ribozyme fitness (log ratio)": 0.154},
      {"variant": "C8U G93A G110U G127C", "polymerase ribozyme fitness (log ratio)": -2.37},
      {"variant": "C28U G93A C101U", "polymerase ribozyme fitness (log ratio)": -3.39},
      {"variant": "C53G C86A", "polymerase ribozyme fitness (log ratio)": -1.75},
      {"variant": "G19U C20G G57U C70G C85U C101U U112G", "polymerase ribozyme fitness (log ratio)": -6.53},
      {"variant": "U7A G52U G60A G61C C62U", "polymerase ribozyme fitness (log ratio)": -6.92},
      {"variant": "A41G G60A", "polymerase ribozyme fitness (log ratio)": -0.408},
      {"variant": "G47U G120U", "polymerase ribozyme fitness (log ratio)": -0.0894},
      {"variant": "C53A C114A", "polymerase ribozyme fitness (log ratio)": -1.87},
      {"variant": "C3A U7G U32C G60U G93C A111C", "polymerase ribozyme fitness (log ratio)": -2.96},
      {"variant": "C12G C94G", "polymerase ribozyme fitness (log ratio)": -1.02},
      {"variant": "A37U A46U G47A U130G U131G", "polymerase ribozyme fitness (log ratio)": -3.56},
      {"variant": "C11U U14C U38G", "polymerase ribozyme fitness (log ratio)": -4.03},
      {"variant": "A111C C114G", "polymerase ribozyme fitness (log ratio)": -3.93},
      {"variant": "A50C U125A", "polymerase ribozyme fitness (log ratio)": -0.974},
      {"variant": "C13A C73G G120A C123A", "polymerase ribozyme fitness (log ratio)": -1.91},
      {"variant": "A18U A27G C72A C115A G120C", "polymerase ribozyme fitness (log ratio)": -3.08},
      {"variant": "C72U A118G", "polymerase ribozyme fitness (log ratio)": -0.902},
      {"variant": "U9A G63U U78A G93C C124G G128C", "polymerase ribozyme fitness (log ratio)": -3.75},
      {"variant": "C40U G71A U78G C123G U125C", "polymerase ribozyme fitness (log ratio)": -1.36},
      {"variant": "C11U G44C", "polymerase ribozyme fitness (log ratio)": -1.47},
      {"variant": "C20A C22A C62G U81G U96G A121U", "polymerase ribozyme fitness (log ratio)": -5.74},
      {"variant": "C8A G36U U132A", "polymerase ribozyme fitness (log ratio)": -1.09},
      {"variant": "C88A C102A G107A A111C U116G C123G U125A", "polymerase ribozyme fitness (log ratio)": -6.39},
      {"variant": "C70A C85U G110C C115U A121G", "polymerase ribozyme fitness (log ratio)": -7.89},
      {"variant": "A5G G63U", "polymerase ribozyme fitness (log ratio)": -0.893},
      {"variant": "C20G U30G C114G G117U C124G", "polymerase ribozyme fitness (log ratio)": -7.61},
      {"variant": "G117A A121U", "polymerase ribozyme fitness (log ratio)": 1.08},
      {"variant": "U7A C72A", "polymerase ribozyme fitness (log ratio)": -0.427},
      {"variant": "C8A C53G", "polymerase ribozyme fitness (log ratio)": -0.744},
      {"variant": "C73U G93C C124U U125C", "polymerase ribozyme fitness (log ratio)": -1.39},
      {"variant": "C20G C56U C72U", "polymerase ribozyme fitness (log ratio)": -3.6},
      {"variant": "A18G G39C", "polymerase ribozyme fitness (log ratio)": -4.37},
      {"variant": "C13A A83U", "polymerase ribozyme fitness (log ratio)": -2.07},
      {"variant": "C13G G51C G69U U78G", "polymerase ribozyme fitness (log ratio)": -2.43},
      {"variant": "A46G", "polymerase ribozyme fitness (log ratio)": -0.119},
      {"variant": "A74U U109C", "polymerase ribozyme fitness (log ratio)": -4.13},
      {"variant": "C114G G120A G135A", "polymerase ribozyme fitness (log ratio)": -4.92},
      {"variant": "C4G U9A C56G U112A G117A G120C", "polymerase ribozyme fitness (log ratio)": -6.24},
      {"variant": "C88A C94A", "polymerase ribozyme fitness (log ratio)": -1.66},
      {"variant": "C34U G93A", "polymerase ribozyme fitness (log ratio)": -3.87},
      {"variant": "G77A U112G", "polymerase ribozyme fitness (log ratio)": 0.316},
      {"variant": "C12G G44A C73G C82U", "polymerase ribozyme fitness (log ratio)": -0.977},
      {"variant": "U59C A111U A118U", "polymerase ribozyme fitness (log ratio)": -4.73},
      {"variant": "U59C G113U", "polymerase ribozyme fitness (log ratio)": -3.62},
      {"variant": "A2C A5U G52U C62A", "polymerase ribozyme fitness (log ratio)": -4.11},
      {"variant": "A16G A27C C72U C123U", "polymerase ribozyme fitness (log ratio)": -3.64},
      {"variant": "A75G U106G C124A", "polymerase ribozyme fitness (log ratio)": 0.661},
      {"variant": "C11U G113U", "polymerase ribozyme fitness (log ratio)": -2.7},
      {"variant": "A118G C124G", "polymerase ribozyme fitness (log ratio)": -0.0684},
      {"variant": "A43C G51U C56U G58A C80A C89G C101A G122U C123A G127A", "polymerase ribozyme fitness (log ratio)": -6.31},
      {"variant": "A29G C49G C85G", "polymerase ribozyme fitness (log ratio)": -2.46},
      {"variant": "C12G A46U C82G", "polymerase ribozyme fitness (log ratio)": -1.75},
      {"variant": "A90U C97U C104A U109G C124A", "polymerase ribozyme fitness (log ratio)": -3.98},
      {"variant": "A6U A43U G63C G113U", "polymerase ribozyme fitness (log ratio)": -3.4},
      {"variant": "C28G C123U", "polymerase ribozyme fitness (log ratio)": -0.975},
      {"variant": "U7A U33A A100G G120C G135A", "polymerase ribozyme fitness (log ratio)": -3.75},
      {"variant": "U9C C13A C102U A111C", "polymerase ribozyme fitness (log ratio)": -0.646},
      {"variant": "C34A G45U", "polymerase ribozyme fitness (log ratio)": -4.49},
      {"variant": "U55C G61A U125A", "polymerase ribozyme fitness (log ratio)": -0.857},
      {"variant": "C11G G77A", "polymerase ribozyme fitness (log ratio)": -0.375},
      {"variant": "U32C G61U C85G", "polymerase ribozyme fitness (log ratio)": -3.56},
      {"variant": "A50U C53U C64G A111U C124U", "polymerase ribozyme fitness (log ratio)": -8.17},
      {"variant": "G36U G61C U126C", "polymerase ribozyme fitness (log ratio)": -4.78},
      {"variant": "G71U A83G A91C U96C G110A", "polymerase ribozyme fitness (log ratio)": -6.02},
      {"variant": "A18U G71C C104A", "polymerase ribozyme fitness (log ratio)": -6.56},
      {"variant": "C20U G71C A75G C82U U87G A90U A105G G113U", "polymerase ribozyme fitness (log ratio)": -3.34},
      {"variant": "C11A G45U G71A A121C U132A", "polymerase ribozyme fitness (log ratio)": -0.447},
      {"variant": "U21A C49A G63U", "polymerase ribozyme fitness (log ratio)": -2.05},
      {"variant": "U32C G36A U92A A105U C123A C124G", "polymerase ribozyme fitness (log ratio)": -5.91},
      {"variant": "C13U C20U U106A G120A", "polymerase ribozyme fitness (log ratio)": -1.72},
      {"variant": "C79A A83U", "polymerase ribozyme fitness (log ratio)": -3.6},
      {"variant": "C70G U125A", "polymerase ribozyme fitness (log ratio)": -2.85},
      {"variant": "C11U C22G A111G G122U U129C", "polymerase ribozyme fitness (log ratio)": -6.1},
      {"variant": "A6U A84C C86G G93U", "polymerase ribozyme fitness (log ratio)": -2.38},
      {"variant": "U78C U87C", "polymerase ribozyme fitness (log ratio)": 0.532},
      {"variant": "U7A G57A", "polymerase ribozyme fitness (log ratio)": -0.474}
    ]}
  ]
}
